In paper PMC6336717:

Tests used:
C3b (human) [1] = biological target: C3b (human) (UniProt P01024); assay: ELISA; competition: C3b coated on the plate; FH 25 nM and WT Sbi-III-IV 1,000 nM with a concentration series of FHRs, FH19-20 or FHR-1 1-2; 1 h 37°C, PBST-2% BSA; FH bound detected with OX-24
C3b (human) [2] = biological target: C3b (human) (UniProt P01024); assay: ELISA; competition: C3b coated on the plate (0.25 ug/well); FH 25 nM with a concentration series of FHRs, FH19-20 or FHR-1 1-2, no Sbi; 1 h 37°C, PBST-2% BSA; FH bound detected with OX-24

Chain of factor H-related protein 1 (FHR-1), recombinant (Q03591 19-330): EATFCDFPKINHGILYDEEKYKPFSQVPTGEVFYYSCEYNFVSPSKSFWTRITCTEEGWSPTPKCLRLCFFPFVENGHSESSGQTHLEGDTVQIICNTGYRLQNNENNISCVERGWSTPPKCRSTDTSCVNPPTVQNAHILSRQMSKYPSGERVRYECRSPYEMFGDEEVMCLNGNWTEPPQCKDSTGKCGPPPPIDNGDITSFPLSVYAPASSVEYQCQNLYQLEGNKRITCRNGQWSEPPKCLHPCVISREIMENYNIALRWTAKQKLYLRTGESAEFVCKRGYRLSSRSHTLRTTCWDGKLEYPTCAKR

percent residual FH bound to C3b at the highest FHR-1 concentration, with Sbi-III-IV WT (C3b (human) [1]): 0%
percent residual FH bound to C3b at the lowest FHR-1 concentration, with Sbi-III-IV WT (C3b (human) [1]): 25%
percent residual FH bound to C3b at the highest FHR-1 concentration (C3b (human) [2]): 30%
percent residual FH bound to C3b at the lowest FHR-1 concentration (C3b (human) [2]): 70%
Substance: factor H-related protein 1 (FHR-1), recombinant (from UniProt Q03591 19-330) (natural protein)
